What was measured:
[1] = from references [8], [16]; cited from earlier work
[2] = Substrate specificity, fatty acid binding protein assay on phospholipid vesicles; type: biochemical; settings: 30 μM vesicles, 1 mM Ca2+, 37° C.
Procedure: (§1) FIGS. 4A-4C represent the enzymatic properties of recombinant hGIIF sPLA2. […] Full experimental details are provided in materials and methods.
(§2) The Ca^2+ and pH dependencies of hGIIF sPLA2 were measured with POPC vesicles containing 1-palmitoyl-2-[1-^3H]palmitoyl-sn-glycero-3-phospho9choline vesicles and POPG vesicles containing 1-palmitoyl-2-[1-^3H]palmitoyl-sn-glycero-3-phosphoglyceril, respectively. Substrate specificity studies were carried out using a slightly modified assay with the fatty acid binding protein [7]. Reaction mixtures contained 30 μM POPC, POPG, or POPS (1-Palmitoyl-2-Oleoyl-sn-Glcero-3-phosphoserine) large […] vesicles (0.1 μm, prepared by extrusion as described [222[) in Hanks' balanced salt solution with 1 mM Ca^2+, 1 mM Mg^2+, 9.7 μg fatty acid binding protein, and 1 μm 11-dansyl-undecanoic acid at 37° C. Assays were calibrated by adding a known amount of oleic acid to the complete assay in the absence of enzyme.

[3] = Ca2+-dependence of the hydrolysis of phosphatidylcholine vesicles; type: biochemical
Procedure: as §1, §2

[4] = pH-dependence of the hydrolysis of phosphatidylglycerol vesicles; type: biochemical
Procedure: as §1, §2

B1: hGV: human group V secreted phospholipase A2 (protein)
chain: MKGLLPLAWFLACSVPAVQGGLLDLKSMIEKVTGKNALTNYGFYGCYCGWGGRGTPKDGTDWCCWAHDHCYGRLEEKGCNIRTQSYKYRFAWGVVTCEPGPFCHVNLCACDRKLVYCLKRNLRSYNPQYQYFPNILCS
- preference for POPG versus POPC vesicles [1]: 3 fold

B2: hGIIF sPLA2: novel human secreted group IIF phospholipase A2, recombinantly expressed in E. coli; 168 amino acid sequence, mature protein 148 residues (protein)
chain: MKKFFTVAILAGSVLSTAHGSLLNLKAMVEAVTGRSAILSFVGYGCYCGLGGRGQPKDEVDWCCHAHDCCYQELFDQGCHPYVDHYDHTIENNTEIVCSDLNKTECDKQTCMCDKNMVLCLMNQTYREEYRGFLNVYCQGPTPNCSIYEPPPEEVTCSHQSPAPPAPP
- rate of POPC hydrolysis relative to rate of POPG [2]: ~6%
- relative rates for the hydrolysis of POPG, POPS, and POPC vesicles [2]: highest with anionic POPG vesicles
- apparent KCa2+ ([3]; PC vesicles as substrate, hyperbolic dependence on Ca2+ concentration): 140 ± 40 µM
- Ca2+ dependence of hydrolysis of phospholipid vesicles ([3]; phospholipid vesicles): strictly Ca^2+ dependent
- rate of hydrolysis of phosphatidylglycerol vesicles versus pH [4]: increases with pH in the range 5-7

B3: hGX: human group X secreted phospholipase A2 (protein)
chain: MLLLLLPSLLLLLLLPGPGSGEASRILRVHRRGILELAGTVGCVGPRTPIAYMKYGCFCGLGGHGQPRDAIDWCCHGHDCCYTRAEEAGCSPKTERYSWQCVNQSVLCGPAENKCQELLCKCDQEIANCLAQTEYNLKYLFYPQFLCEPDSPKCD
- preference for POPG versus POPC vesicles [1]: 10 fold

B4: hGIIA sPLA2: human group IIA secreted phospholipase A2 (protein)
chain: MKTLLLLAVIMIFGLLQAHGNLVNFHRMIKLTTGKEAALSYGFYGCHCGVGGRGSPKDATDRCCVTHDCCYKRLEKRGCGTKFLSYKFSNSGSRITCAKQDSCRSQLCECDKAAATCFARNKTTYNKKYQYYSNKHCRGSTPRC
- preference for POPG versus POPC vesicles [1]: greater than 10^5 fold

Reference: patent publication US6812017B2, “Mammalian secreted group IIF phospholipase A2” (Centre National de la Recherche Scientique - CNRS, priority 2000, dated 2004)
